Biological target: p65 (RELA, Transcription factor p65) (UniProt Q04206)
Assay: anti-HA co-IP, p65 blot
Settings: reference: HA-WEE1 wild type; sites S642

binding against the reference: lost
Substance: HA-WEE1 (from UniProt P30291) HA-WEE1 S642A

Source: paper PMC12245028
